{
  "source": "paper PMC8640019",
  "target": "SH2B (human) (UniProt Q9NRF2)",
  "assay": "ITC",
  "data": [
    {"substance": "JAK2 pY813 peptide", "values": [
      {"measurement": "Ka", "result": "1.45e+06", "unit": "M⁻¹"},
      {"measurement": "Kd", "result": 690, "unit": "nM"},
      {"measurement": "stoichiometry N", "result": 0.79}
    ]}
  ]
}
